We go through 36 molecules from paper PMC10786891, “Massively parallel profiling of RNA-targeting CRISPR-Cas13d”.

B1: target 2 MT 5'PFS CGG 3'PFS CAC (mixed)
RNA 1: CACCCGUGCAAAAUUGCAGGGGUCUAAAACCUUCUCCAAAUUGUUUCAUCCU
RNA 2: GGGAAUGGAUCCACAUCUACGAAUUCCGGAGGAUGAAACAAUUUGGAGAAGCACAGAUCGGAAGAGCACACGU
B2: target 2 MT 5'PFS AUU 3'PFS CUG (mixed)
RNA 1: B1 RNA 1
RNA 2: B1 RNA 2 with C27A, G28U, G29U, A53U, C54G
B3: target 2 MT 5'PFS UGA 3'PFS AUC (mixed)
RNA 1: B1 RNA 1
RNA 2: B1 RNA 2 with C27U, G29A, C52A, A53U
B4: target 2 MT 5'PFS UAG 3'PFS CCG (mixed)
RNA 1: B1 RNA 1
RNA 2: B1 RNA 2 with C27U, G28A, A53C, C54G
B5: target 2 MT 5'PFS UAG 3'PFS CCA (mixed)
RNA 1: B1 RNA 1
RNA 2: B1 RNA 2 with C27U, G28A, A53C, C54A
B6: target 2 MT 5'PFS UCG 3'PFS UCA (mixed)
RNA 1: B1 RNA 1
RNA 2: B1 RNA 2 with C27U, G28C, C52U, A53C, C54A
B7: target 2 MT 5'PFS AUU 3'PFS UCC (mixed)
RNA 1: B1 RNA 1
RNA 2: B1 RNA 2 with C27A, G28U, G29U, C52U, A53C
B8: target 2 MT 5'PFS AUU 3'PFS CUA (mixed)
RNA 1: B1 RNA 1
RNA 2: B1 RNA 2 with C27A, G28U, G29U, A53U, C54A
B9: target 2 MT 5'PFS AGG 3'PFS AUC (mixed)
RNA 1: B1 RNA 1
RNA 2: B1 RNA 2 with C27A, C52A, A53U
B10: target 2 MT 5'PFS UGA 3'PFS AUU (mixed)
RNA 1: B1 RNA 1
RNA 2: B1 RNA 2 with C27U, G29A, C52A, A53U, C54U
B11: target 2 MT 5'PFS UAG 3'PFS AAC (mixed)
RNA 1: B1 RNA 1
RNA 2: B1 RNA 2 with C27U, G28A, C52A
B12: target 2 MT 5'PFS UAG 3'PFS AAA (mixed)
RNA 1: B1 RNA 1
RNA 2: B1 RNA 2 with C27U, G28A, C52A, C54A
B13: target 2 MT 5'PFS AUU 3'PFS CUC (mixed)
RNA 1: B1 RNA 1
RNA 2: B1 RNA 2 with C27A, G28U, G29U, A53U
B14: target 2 MT 5'PFS CGG 3'PFS CAU (mixed)
RNA 1: B1 RNA 1
RNA 2: B1 RNA 2 with C54U
B15: target 2 MT 5'PFS UGA 3'PFS AUA (mixed)
RNA 1: B1 RNA 1
RNA 2: B1 RNA 2 with C27U, G29A, C52A, A53U, C54A
B16: target 2 MT 5'PFS CGG 3'PFS CAA (mixed)
RNA 1: B1 RNA 1
RNA 2: B1 RNA 2 with C54A
B17: target 2 MT 5'PFS CGG 3'PFS CAG (mixed)
RNA 1: B1 RNA 1
RNA 2: B1 RNA 2 with C54G
B18: target 2 MT 5'PFS UAG 3'PFS AAG (mixed)
RNA 1: B1 RNA 1
RNA 2: B1 RNA 2 with C27U, G28A, C52A, C54G
B19: target 2 MT 5'PFS UAG 3'PFS CCU (mixed)
RNA 1: B1 RNA 1
RNA 2: B1 RNA 2 with C27U, G28A, A53C, C54U
B20: target 2 MT 5'PFS UAG 3'PFS AAU (mixed)
RNA 1: B1 RNA 1
RNA 2: B1 RNA 2 with C27U, G28A, C52A, C54U
B21: target 1 MT 5'PFS CCU 3'PFS CAC (mixed)
RNA 1: CACCCGUGCAAAAAUGCAGGGGUCUAAAACUGAGCGGAUAACCUCUCUAUGG
RNA 2: GGGAAUGGAUCCACAUCUACGAAUUCCCUCCAUAGAGAGGUUAUCCGCUCACACAGAUCGGAAGAGCACACGU
B22: target 1 MT 5'PFS ACG 3'PFS AUG (mixed)
RNA 1: B21 RNA 1
RNA 2: B21 RNA 2 with C27A, U29G, C52A, A53U, C54G
B23: target 1 MT 5'PFS ACG 3'PFS AUC (mixed)
RNA 1: B21 RNA 1
RNA 2: B21 RNA 2 with C27A, U29G, C52A, A53U
B24: target 1 MT 5'PFS GAG 3'PFS UCG (mixed)
RNA 1: B21 RNA 1
RNA 2: B21 RNA 2 with C27G, C28A, U29G, C52U, A53C, C54G
B25: target 1 MT 5'PFS ACG 3'PFS AUA (mixed)
RNA 1: B21 RNA 1
RNA 2: B21 RNA 2 with C27A, U29G, C52A, A53U, C54A
B26: target 1 insC 3' of 12,insC 3' of 12 (mixed)
RNA 1: B21 RNA 1
RNA 2: GGGAAUGGAUCCACAUCUACGAAUUCGUACCAUAGAGAGGCCUUAUCCGCUCACCGAGAUCGGAAGAGCACACGU
B27: target 1 MT 5'PFS GAG 3'PFS UCA (mixed)
RNA 1: B21 RNA 1
RNA 2: B21 RNA 2 with C27G, C28A, U29G, C52U, A53C, C54A
B28: target 1 MT 5'PFS CUG 3'PFS AGG (mixed)
RNA 1: B21 RNA 1
RNA 2: B21 RNA 2 with C28U, U29G, C52A, A53G, C54G
B29: target 1 MT 5'PFS CCU 3'PFS CAG (mixed)
RNA 1: B21 RNA 1
RNA 2: B21 RNA 2 with C54G
B30: target 1 insC 3' of 12,insG 3' of 4 (mixed)
RNA 1: B21 RNA 1
RNA 2: B26 RNA 2 with C42U, U44A, A45U, U46C, C48G, G49C, C50G
B31: target 1 MT 5'PFS AUG 3'PFS AUG (mixed)
RNA 1: B21 RNA 1
RNA 2: B21 RNA 2 with C27A, C28U, U29G, C52A, A53U, C54G
B32: target 1 MT 5'PFS CCU 3'PFS CAU (mixed)
RNA 1: B21 RNA 1
RNA 2: B21 RNA 2 with C54U
B33: target 1 MT 5'PFS AUG 3'PFS AUU (mixed)
RNA 1: B21 RNA 1
RNA 2: B21 RNA 2 with C27A, C28U, U29G, C52A, A53U, C54U
B34: target 1 MT 5'PFS GAG 3'PFS UCU (mixed)
RNA 1: B21 RNA 1
RNA 2: B21 RNA 2 with C27G, C28A, U29G, C52U, A53C, C54U
B35: target 1 MT 5'PFS GAG 3'PFS UCC (mixed)
RNA 1: B21 RNA 1
RNA 2: B21 RNA 2 with C27G, C28A, U29G, C52U, A53C
B36: target 1 C4A,A18U (mixed)
RNA 1: B21 RNA 1
RNA 2: B21 RNA 2 with C27G, C28U, U29A, A34U, C48A, A53C, C54G

Numbering of substitutions follows the chain as printed. In names and notes the source's numbering stands.

In this series the target is T1, EsCas13d, nuclease-dead (Eubacterium siraeum, UniProt B0MS50, R295A;H300A;R849A;H854A).
T1 sequence: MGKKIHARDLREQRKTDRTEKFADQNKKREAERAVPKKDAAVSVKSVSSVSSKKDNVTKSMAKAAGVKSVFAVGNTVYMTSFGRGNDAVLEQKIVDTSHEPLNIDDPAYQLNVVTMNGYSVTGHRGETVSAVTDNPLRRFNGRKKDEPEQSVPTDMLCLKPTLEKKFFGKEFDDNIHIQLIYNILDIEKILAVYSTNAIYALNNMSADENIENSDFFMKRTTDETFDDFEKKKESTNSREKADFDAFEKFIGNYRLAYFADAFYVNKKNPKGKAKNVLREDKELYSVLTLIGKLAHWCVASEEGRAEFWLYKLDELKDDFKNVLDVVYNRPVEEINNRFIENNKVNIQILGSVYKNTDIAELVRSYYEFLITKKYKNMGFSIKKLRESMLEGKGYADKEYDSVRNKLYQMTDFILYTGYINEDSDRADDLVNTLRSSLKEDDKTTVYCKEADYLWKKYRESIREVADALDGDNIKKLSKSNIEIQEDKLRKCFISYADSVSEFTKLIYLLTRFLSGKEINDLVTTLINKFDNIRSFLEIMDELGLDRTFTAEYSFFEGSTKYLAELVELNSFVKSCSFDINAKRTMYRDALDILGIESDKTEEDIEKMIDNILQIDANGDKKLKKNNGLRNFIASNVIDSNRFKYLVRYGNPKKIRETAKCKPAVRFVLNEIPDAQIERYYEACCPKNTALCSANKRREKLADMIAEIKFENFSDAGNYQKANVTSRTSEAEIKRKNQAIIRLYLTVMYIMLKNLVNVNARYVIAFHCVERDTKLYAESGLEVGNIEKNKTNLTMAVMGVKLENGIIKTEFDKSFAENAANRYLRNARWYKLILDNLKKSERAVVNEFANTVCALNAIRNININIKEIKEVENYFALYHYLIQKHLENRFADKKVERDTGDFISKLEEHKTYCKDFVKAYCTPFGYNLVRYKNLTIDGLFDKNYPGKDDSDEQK
Briefly: crRNA (strand 1, pre-loaded); Mg2+; 40 mM Tris-HCl pH 7.5, 150 mM NaCl, 6 mM MgCl2, 1 mM DTT, 0.1% Tween-20, 0.2 mg/ml BSA; 25 C; 10 min per concentration, then washed. The note with it: tags: His6-TwinStrep-SUMO cleaved; N-terminal SNAP kept (SNAP-Surface 488); label: 3' end held by stalled T7 RNA polymerase.
As a reminder, the Kd is a measure of binding affinity in units of concentration. Read a low Kd as higher affinity. Take B1: the Kd was 6.8 ± 1.3 nM.

B2 returned a Kd of 9.7 ± 1.3 nM.

Take B3: the dissociation constant (Kd) was 8.7 ± 1.1 nM.

For B4, binding was put at a Kd of 2.56 ± 0.17 nM. This Kd lies about 3.4-fold lower than the previous one.

For B5, the Kd came out at 5.1 ± 0.4 nM.

Turning to B6, binding was characterised by a dissociation constant (Kd) of 21 ± 5 nM.

On to B7, for which the Kd was 16.7 ± 1.8 nM.

In the case of B8, the dissociation constant (Kd) was found to be 14 ± 4 nM.

The molecule B9 gave a Kd of 5.5 ± 0.6 nM.

As to B10, the Kd was 7.5 ± 1.3 nM.

With B11, binding was put at a Kd of 3.6 ± 0.4 nM.

As to B12, the dissociation constant (Kd) was found to be 2.2 ± 0.4 nM. This Kd is about 1.6-fold lower than that of the molecule before.

Take B13: the affinity, expressed as Kd, was 16.6 ± 3.1 nM.

In turn, B14 yielded a Kd of 4.4 ± 0.5 nM. This Kd lies about 3.8-fold lower than the previous one.

In turn, B15 registered a Kd of 7.1 ± 1.4 nM.

B16 registered a Kd of 3.4 ± 0.5 nM. Compared with the last molecule, the Kd is about 2.1-fold lower.

Consider B17, for which the dissociation constant (Kd) is 4.3 ± 0.6 nM.

As to B18, the dissociation constant Kd was 2.87 ± 0.28 nM.

B19: binding was put at a Kd of 54 ± 17 nM.

B20 returned a Kd of 3.8 ± 0.5 nM.

B21 gave a dissociation constant Kd of 15.2 ± 5.15 nM.

As to B22, the Kd came out at 45 ± 18.5 nM.

The molecule B23 registered a Kd of around 24.5 nM.

The molecule B24 had a Kd of 42 ± 16 nM.

The molecule B25 displayed a Kd of 16.5 ± 6.5 nM.

For the molecule B26, the affinity, expressed as Kd, was 18.3 ± 1.3 nM.

Regarding B27, the equilibrium dissociation constant (Kd) is around 47.5 nM.

Molecule B28 showed a Kd of 66.5 ± 33 nM.

Regarding B29, the Kd is around 26 nM.

The molecule B30 gave a Kd of 5.7 ± 0.5 nM.

B31 returned a Kd of 49 ± 18 nM.

B32: the equilibrium dissociation constant (Kd) came to 13.5 ± 5.5 nM. Compared with the last molecule, the Kd is about 3.6-fold lower.

B33 gave a Kd of 11.4 ± 2.5 nM.

The molecule B34 yielded a Kd of 29 ± 9 nM.

B35 had a Kd of 55.5 ± 26.5 nM.

As to B36, binding was put at a Kd of 21.1 ± 2.4 nM. Compared with the last molecule, the Kd is about 2.6-fold lower.
